The series has as its target human growth hormone (hGH) with the N-terminal phenylalanine, expressed and secreted from plasmid phGH4R, P01241.

Chain of human growth hormone (hGH) with the N-terminal phenylalanine, expressed and secreted from plasmid phGH4R, P01241 (P01241 27-217): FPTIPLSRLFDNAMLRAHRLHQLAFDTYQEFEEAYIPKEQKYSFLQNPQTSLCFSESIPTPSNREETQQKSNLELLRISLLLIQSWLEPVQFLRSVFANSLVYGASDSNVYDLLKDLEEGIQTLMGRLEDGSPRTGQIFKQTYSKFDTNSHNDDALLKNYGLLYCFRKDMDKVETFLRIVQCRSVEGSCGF

B1: native-sequence aminopeptidase b2324 (product of the E. coli chromosomal yfcK gene) (protein)
chain: MRSLTHIAKIEPPPVRRVTYVKHYSIQPANLEFNAEGTPVSRDFDDVYFSNDNGLEETRYVFLGGNQLEVRFPEHPHPLFVVAESGFGTGLNFLTLWQAFDQFREAHPQAQLQRLHFISFEKFPLTRADLALAHQHWPELAPWAEQLQAQWPMPLPGCHRLLLDEGRVTLDLWFGDINELTSQLDDSLNQKVDAWFLDGFAPAKNPDMWTQNLFNAMARLARPGGTLATFTSAGFVRRGLQDAGFTMQKRKGFGRKREMLCGVMEQTLPLPCSAPWFNRTGSSKREAAIIGGGIASALLSLALLRRGWQVTLYCADEAPALGASGNRQGALYPLLSKHDEALNRFFSNAFTFARRFYDQLPVKFDHDWCGVTQLGWDEKSQHKIAQMLSMDLPAELAVAVEANAVEQITGVATNCSGITYPQGGWLCPAELTRNVLELAQQQGLQIYYQYQLQNLSRKDDCWLLNFAGDQQATHSVVVLANGHQISRFSQTSTLPVYSVAGQVSHIPTTPELAELKQVLCYDGYLTPQNPANQHHCIGASYHRGSEDTAYSEDDQQQNRQRLIDCFPQAQWAKEVDVSDKEARCGVRCATRDHLPMVGNVPDYEATLVEYASLAEQKDEAVSAPVFDDLFMFAALGSRGLCSAPLCAEILAAQMSDEPIPMDASTLAALNPNRLWVRKLLKGKAVKAG
Consider B1, for which the “N-terminal cleavage of hGH in crude lysate (LC-MS), yfcK deletion strain against control” value is “virtually no phenylalanine-cleaved impurities after 15 hours of incubation at 37 °C”.

The record behind these values is patent publication US20030124664.
